The target of experiment [1] is T1, monkey LAG-3 (full length, on the cell surface) (monkey, UniProt P18627 24-525 (human entry)).
T1 construct: also called HEK293-cLAG-3; monkey LAG-3 protein on the cell surface
T1 chain: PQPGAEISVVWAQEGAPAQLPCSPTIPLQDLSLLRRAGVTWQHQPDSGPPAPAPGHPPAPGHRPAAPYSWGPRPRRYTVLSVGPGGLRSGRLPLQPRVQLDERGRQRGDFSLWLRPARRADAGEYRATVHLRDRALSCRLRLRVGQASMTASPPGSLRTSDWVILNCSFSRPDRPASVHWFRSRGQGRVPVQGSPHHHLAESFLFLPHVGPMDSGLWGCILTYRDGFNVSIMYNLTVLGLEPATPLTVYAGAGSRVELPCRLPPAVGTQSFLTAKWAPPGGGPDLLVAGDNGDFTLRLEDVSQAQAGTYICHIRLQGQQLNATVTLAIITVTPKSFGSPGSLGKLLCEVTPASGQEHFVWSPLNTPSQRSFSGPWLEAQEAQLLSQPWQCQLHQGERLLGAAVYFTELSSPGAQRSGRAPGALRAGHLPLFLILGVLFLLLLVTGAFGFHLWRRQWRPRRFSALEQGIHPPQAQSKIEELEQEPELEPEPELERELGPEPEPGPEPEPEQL
As to the kind of experiment: FACS, HEK293-cLAG-3; 0.000 nM. The source says:
The pIRES plasmid with the monkey-derived full-length gene was transfected into the HEK293 cell line to construct a HEK293 stable cell line containing monkey LAG-3 (herein referred to as HEK293-cLAG-3 stable cell line). The HEK293-hLAG-3 stable cell line and HEK293-cLAG-3 stable cell line were expanded in a T-75 cell culture flask to a 90% confluence. The medium was aspirated, and the cells were washed with HBSS (Hanks' Balanced Salt Solution) 1-2 times, then treated with a enzyme-free cell dissociation fluid (Versene solution: Life technology) and the cells were collected. The cells were washed with HBSS buffer for 1-2 times. After counted, the cells were diluted with HBSS to 1-2×10⁶ cells per ml, added with 1% goat serum blocking solution, incubated on ice for 20-30 minutes, and then washed with HBSS for 2 times by centrifugation. The collected cells were suspended in the FACS buffer (HBSS+1% BSA) to 2×10⁶ cells/ml, added as 100 microliters per well to a 96-well FACS reaction plate, added with 100 microliters per well of the antibody sample to be tested, incubated on ice for 1-2 hours. The plate was washed twice with the FACS buffer by centrifugation, added with 100 microliters of fluorescent (Alexa 488)-labeled secondary antibodies per well, and incubated on ice for 0.5-1.0 hours. The plate was washed 2-3 times with FACS buffer by centrifugation, added with 100 μl fixative solution (4% Paraformaldehyde) per well to suspend the cells. 5-10 minutes later, it was washed 1-2 times with FACS buffer by centrifugation. The cells were suspended with 100 microliters of FACS buffer, FACS (FACSCalibur, BD) was used for detection and the results were analyzed.
For orientation: A flow cytometer gives signals particle by particle.

The target in experiment [2] is T2, human LAG-3 protein with hFc tag (hLAG-3-hFc protein) (human, UniProt P18627 23-450).
T2 construct: also called immunogen 1; LAG-3 extracellular domain protein; not shown: human IgG Fc fragment (hFc) of the pCpC vector
T2 sequence: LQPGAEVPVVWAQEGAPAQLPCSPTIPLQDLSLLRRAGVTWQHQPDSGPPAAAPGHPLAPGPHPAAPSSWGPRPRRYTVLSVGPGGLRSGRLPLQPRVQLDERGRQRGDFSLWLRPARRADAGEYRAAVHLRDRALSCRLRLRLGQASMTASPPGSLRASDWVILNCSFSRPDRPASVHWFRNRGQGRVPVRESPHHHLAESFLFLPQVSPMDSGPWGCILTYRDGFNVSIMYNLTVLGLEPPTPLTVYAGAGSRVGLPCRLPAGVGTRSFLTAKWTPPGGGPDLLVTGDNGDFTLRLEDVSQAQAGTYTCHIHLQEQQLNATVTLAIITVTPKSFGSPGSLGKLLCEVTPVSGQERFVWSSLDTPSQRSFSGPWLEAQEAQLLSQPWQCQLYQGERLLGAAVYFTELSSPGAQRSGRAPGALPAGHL
As to the kind of experiment: ELISA, hLAG-3-hFc coated; 0.0067 nM. The method, then:
(§1) The plate was sealed with plastic film and incubated overnight at 4° C. The plate was washed 2 times with the plate washing solution (PBS+0.01% Tween20) on the next day, and added with the blocking solution (PBS+0.01% Tween20+1% BSA) and blocked at room temperature for 1-2 hours. The blocking solution was poured out, and the plate was added with 50-100 μl of the antibody sample to be tested to each well, incubated at 37° C. for 1-2 hours, and washed 2-3 times with a plate washing solution (PBS+0.01% Tween20). HRP (horseradish peroxidase) labeled secondary antibody was added, and the plate was incubated at 37° C. for 1-2 hours, and washed 2-3 times with a plate washing solution (PBS+0.01% Tween20). 100 μl of TMB substrate was added to each well. After incubated at room temperature for 15-30 minutes, the plate was added with 100 μl of stop solution (1.0N HCl) to each well.
(In an ELISA, binding on a coated surface is turned into a signal by an enzyme label.)

The target of experiment [3] is T2, human LAG-3 protein with hFc tag …. Kind of experiment: ELISA, hLAG-3-hFc coated; 0.6667 nM. The method, then: as §1
The target in experiment [4] is T3, hFc tagged monkey LAG-3 protein (cLAG-3-hFc protein) (monkey; human).
T3 construct: Made in HEK293 cells; also called monkey LAG-3 extracellular domain protein; not shown: human IgG Fc fragment (hFc) of the pCpC vector
T3 chain: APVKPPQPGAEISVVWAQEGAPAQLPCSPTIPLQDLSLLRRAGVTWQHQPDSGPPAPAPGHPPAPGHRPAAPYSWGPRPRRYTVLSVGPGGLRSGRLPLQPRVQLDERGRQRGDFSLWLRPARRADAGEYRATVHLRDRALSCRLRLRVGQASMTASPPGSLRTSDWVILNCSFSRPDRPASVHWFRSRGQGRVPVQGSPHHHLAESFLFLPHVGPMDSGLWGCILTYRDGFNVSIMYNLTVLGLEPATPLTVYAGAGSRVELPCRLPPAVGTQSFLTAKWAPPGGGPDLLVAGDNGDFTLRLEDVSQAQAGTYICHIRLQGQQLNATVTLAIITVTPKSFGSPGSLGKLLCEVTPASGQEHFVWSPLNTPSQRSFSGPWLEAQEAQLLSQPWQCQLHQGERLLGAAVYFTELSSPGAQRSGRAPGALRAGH
Kind of experiment: ELISA, cLAG-3-hFc coated; 0.0000 nM. The method, then: as §1

B1: 405B8H3 (mouse antibody purified from hybridoma) (antibody, V domains shown)
VH: QVQLQQSGAELVRPGASVTLSCKASGYTFTDYEMHWVKQTPVHGLEWIGATDPETGNSAYNQKFKGKAIMTADKSSSTAYMELRSLTSEDSAVYYCISTGWNDWGQGTSLTVSS
VL: DIKMTQSPSSMYASLGERVTITCKASQDINSYLSWFQQKPGKSPKTLIYRADRLLDGVPSRFSGSGSGQDYSLTISSLEYGDMGIYYCLQYDEFPYTFGGGTKLEIK
notes: also called mAb103-405B8H3; 405B81-13
B1: the Mean fluorescence intensity in experiment [1] amounted to 3.9 MFI.

B2: 105F1E10 (LAG-3 mouse-human chimeric antibody) (antibody, V domains shown)
VH: EVQLQQSGPELVKPGASVKMSCRASGYTFTDFKMHWMKQSHGKSLEWIGYIAPNNGGTAYNQKFRGKATLTVNESSNTAYMELRSLTSEDSAVYYCVDWDDVDYWGQGTTLTVSS
VL: DIKMTQSPSSMYASLGERVTITCKASQDINSYLSWFQQKSGKSPKTLIYRANRLVDGVPSRFSGSGSGQDYSLTISSLEYEDMGIYYCLQYVEFPLTFGAGTKLELK
In the case of B2, the OD450 was found to be 0.3 OD450 in experiment [2], 3.46 OD450 in experiment [3] and 0.15 OD450 in experiment [4].

B3: 405B8H3 (LAG-3 mouse-human chimeric antibody) (antibody, V domains shown)
VH: QVQLQQSGAELVRPGASVTLSCKASGYTFTDYEMHWVKQTPVHGLEWIGATDPETGNSAYNQKFKGKAIMTADKSSSTAYMELRSLTSEDSAVYYCISTGWNDWGQGTSLTVSS
VL: DIKMTQSPSSMYASLGERVTITCKASQDINSYLSWFQQKPGKSPKTLIYRADRLLDGVPSRFSGSGSGQDYSLTISSLEYGDMGIYYCLQYDEFPYTFGGGTKLEIK
notes: also called mouse-human chimeric antibody 405B8H3
For the molecule B3, the OD450 stood at 0.57 OD450 in experiment [2], 3.51 OD450 in experiment [3] and 0.15 OD450 in experiment [4].

B4: 105F1E10 (mouse antibody purified from hybridoma) (antibody, V domains shown)
VH: EVQLQQSGPELVKPGASVKMSCRASGYTFTDFKMHWMKQSHGKSLEWIGYIAPNNGGTAYNQKFRGKATLTVNESSNTAYMELRSLTSEDSAVYYCVDWDDVDYWGQGTTLTVSS
VL: DIKMTQSPSSMYASLGERVTITCKASQDINSYLSWFQQKSGKSPKTLIYRANRLVDGVPSRFSGSGSGQDYSLTISSLEYEDMGIYYCLQYVEFPLTFGAGTKLELK
notes: also called mAb009-105F1E10
B4 yielded a Mean fluorescence intensity in experiment [1] of 3.9 MFI.

B5: 409D4E10 (LAG-3 mouse-human chimeric antibody) (antibody, V domains shown)
VH: QVQLQQSGAELVRPGASVTLSCKASGNTFTDYEMHWVKQTPVHGLEWIGATDPETDNTAYNQKFKGKAILTTDKSSSTAYMELRSLTSEDSAVYYCITSGWNDWGQGTSLTVSS
VL: DIKMTQSPSSMYASLGERVTITCKASQDINSYLSWFQQKPGKSPKTLIYRANRLLDGVPSRFSGSGSGQDYSLTISSLEYEDMGIYYCLQYNEFPYTFGGGTKLEIK
As to B5, the figures for the OD450 in experiment [2], in experiment [3] and in experiment [4] were 0.63 OD450, 3.76 OD450 and 0.18 OD450, respectively.

B6: 409B11E12 (LAG-3 mouse-human chimeric antibody) (antibody, V domains shown)
VH: QVQLQQSGAELVRPGASVTLSCKASGYTFTDYEMHWVKQTTVHGLEWIGATDPETSYSAYNQKFKGKAILTADKSSSTAYMELRSLTSEDSAVYYCIATGWNDWGQGTSLTVSS
VL: DLKMTQSPSSMYASLGERVTITCKASQDINSYLSWFQQKPGKSPKTLIYRANRLLDGVPSRFSGSGSGQDYSLTISSLEYEDMGIYYCLQYDEFPYTFGGGTKLEIK
For the molecule B6, the OD450 in experiment [2] came out at 0.47 OD450; in experiment [3], 3.55 OD450; in experiment [4], 0.14 OD450.

B7: 409B11E12 (mouse antibody purified from hybridoma) (antibody, V domains shown)
VH: QVQLQQSGAELVRPGASVTLSCKASGYTFTDYEMHWVKQTTVHGLEWIGATDPETSYSAYNQKFKGKAILTADKSSSTAYMELRSLTSEDSAVYYCIATGWNDWGQGTSLTVSS
VL: DLKMTQSPSSMYASLGERVTITCKASQDINSYLSWFQQKPGKSPKTLIYRANRLLDGVPSRFSGSGSGQDYSLTISSLEYEDMGIYYCLQYDEFPYTFGGGTKLEIK
notes: also called mAb104-409B11E12
Take B7: the Mean fluorescence intensity in experiment [1] amounted to 3 MFI.

B8: 409D4E10 (mouse antibody purified from hybridoma) (antibody, V domains shown)
VH: QVQLQQSGAELVRPGASVTLSCKASGNTFTDYEMHWVKQTPVHGLEWIGATDPETDNTAYNQKFKGKAILTTDKSSSTAYMELRSLTSEDSAVYYCITSGWNDWGQGTSLTVSS
VL: DIKMTQSPSSMYASLGERVTITCKASQDINSYLSWFQQKPGKSPKTLIYRANRLLDGVPSRFSGSGSGQDYSLTISSLEYEDMGIYYCLQYNEFPYTFGGGTKLEIK
notes: also called mAb112-409D4E10
The molecule B8 displayed a Mean fluorescence intensity in experiment [1] of 3 MFI.

B9: 556F6B8 (mouse antibody purified from hybridoma) (antibody, V domains shown)
VH: RVQLKQSGPGLVQPSQSLSITCTVSGFSLIKYGVHWVRQSPGEGLEWLGVIWRGGITDYNAAFMSRLSITKDNSKSQVFFKMNSLQADDTAIYYCAKWDGPLAMDYWGQGTSVTVSS
VL: DIVMTQSHKFLSTSVGDRVSITCKASQDVGTTVAWYQQKPGQSPKLLIYWASTRHTGVPDRFTGSGSGTDFTLTISNVQSEDLADYFCQQYSSYPYTFGGGTKLEIK
notes: also called mAb123-556F6B8
B9 yielded a Mean fluorescence intensity in experiment [1] of 3.4 MFI.

B10: 556F6B8 (LAG-3 mouse-human chimeric antibody) (antibody, V domains shown)
VH: RVQLKQSGPGLVQPSQSLSITCTVSGFSLIKYGVHWVRQSPGEGLEWLGVIWRGGITDYNAAFMSRLSITKDNSKSQVFFKMNSLQADDTAIYYCAKWDGPLAMDYWGQGTSVTVSS
VL: DIVMTQSHKFLSTSVGDRVSITCKASQDVGTTVAWYQQKPGQSPKLLIYWASTRHTGVPDRFTGSGSGTDFTLTISNVQSEDLADYFCQQYSSYPYTFGGGTKLEIK
notes: also called 556F8B8
In the case of B10, the figures for the OD450 in experiment [2], in experiment [3] and in experiment [4] were 0.38 OD450, 3.76 OD450 and 0.19 OD450, respectively.

The values above are taken from US20210155689A1 (SHANGHAI PHARMAEXPLORER, published 2021).
